Measurements: the DeepSol protein solubility set

Experiment: soluble on expression in E. coli; label from the status in PepcDB or PDB records

Soluble on expression in E. coli, soluble:
GPGSMSNIKKVQTEADRLLKKVNEGLDAYDELHEKLANAPNASAKERLEGDLKRELKKLQRHREAMKSFMQNDDYKEKMKMQVSRKKIEERMETFRAIEREMKTKAFSNEGLASAALERADSATEQWLKDAIEEGRKKIELLEYEVQKANNGRVRRGKQQKSEYQIRLENLQTHFFKWESLLRMVNNEELDTDEVDDLQEPIQKVLEDDVDLDVMEDMSIYDSFDIPEPKAKPVVPFDVSDYEDKKVQSPKTTAKAKTPTSTVQAKPSPFITSPKETAASPPAAKAASSTPVPSSMQQPALAQAPQQQLLPPTANSPADDDIGEEEPVPEWMDDDMDTANDDTFGDAAMSGGFTIGSLAEMASATNKVTQDWEKSQKPVGSLEPKTVKVTDPVHGAPEEKRKPTPPVAAPTPNAWERRAAEQQSRQKVQQQQQKQAPEAASPVAPLGPVAAAAEASAPEAVTTSLINPVAATSPSTPAGSANTDPIQPFPPIPGAAPGSKFTPKKIHELLDMSLGNLPHTLDVQRQRPYEPPNAIDAIPYFPQEVLPVLSNKDVYHQMDLDTLFFIFYYHQKSYQQYFAAKELKARSYRYHTKQQRWYQRLERPQTTTETEERGSYTFFDFEDKWDHDRIDDFLFEYKYLENELH
MSLERKKYNFNSEWRLQIGDFPEAKQSQFDDSRWKAVTLPHAFNEDEAFKVSIEQLTDTVVWYRKHFRIPASGKKQKVFIEFEGVRQAGDFYLNGQYLGKHENGVMAAGFDLTPYIKEGDNVLAVRTDNDWMYREKSTNSKFQWNDRNFNANYGGLPKNVFLYVTDEVYQTLPLYSNLKTTGVYIYAKDIDVKGRTATIHAESEVKNDSREPRQFSYQVVLLDADGKQVKSFEGEKVTLQGGETRVVKAASKVNNLHFWSWGYGYLYTVQTILKDNKNQVFDEVSTRTGFRKTRFAEGKIWLNDRVIQMKGYAQRTSNEWPAVGLSVPAWLSDYSNGLVVKGNGNLVRWMHVTPWKQDVESCDRVGLIQAMPAGDSEKDRTGRQWDQRTELMRDAIIYNRNNPSILFYECGNKGISREHMIEMKAIRDQYDPFGGRAIGSREMLDIREAEYGGEMLYINKSEHHPMWATEYCRDEGLRKYWDEYSYPFHKEGDGPLHRNQPATDYNHNQDMLAIAMIRCWYDYWRERPGTGRRVSSGGAKIIFSDTNTHHRGEENYRRSGVTDPMRIEKDAFFAHQVMWNGWVDTEEDNTYIIGHWNYPANTVKPVYVVSTGEEVELFLNSQSLGKGKREYNFLFTFDNVAFKAGKLEAVSYNKAGKEISRYAVSTVGEPAGLKLTTIQNPEGFHADGADLALIQVEVVDKDGKRCPLDNRTIQFDLKGNAEWRGGIAQGKDNYILNTSLPVECGINRALIRSTTQAGKITLTAKAEGLPSATITLETLPVKVSNGLSTYLPQMTLKGNLDKGKTPLTPSYKDTKRDIRIVSAKAGANNETVNQSFDDNERSEWMNDGKLSTAWITYTLEKEAAIDDICIKLNGWRSRSYPLEVFAGNTMIWSGDTNKSLGYVHLNVEKPVRSKQITIRLKGNTSDQDAFGQITEVAAKAANDMELEAKANKNNANLRIIEIEFLEAIKEGHHHHHH
MRGSHHHHHHTDPALRAKKIAIVGAGPTGIYTLFSLLQQQTPLSISIFEQADEAGVGMPYSDEENSKMMLANIASIEIPPIYCTYLEWLQKQEDSHLQRYGVKKETLHDRQFLPRILLGEYFRDQFLRLVDQARQQKFAVAVYESCQVTDLQITNAGVMLATNQDLPSETFDLAVIATGHVWPDEEEATRTYFPSPWSGLMEAKVDACNVGIMGTSLSGLDAAMAVAIQHGSFIEDDKQHVVFHRDNASEKLNITLLSRTGILPEADFYCPIPYEPLHIVTDQALNAEIQKGEEGLLDRVFRLIVEEIKFADPDWSQRIALESLNVDSFAQAWFAERKQRDPFDWAEKNLQEVERNKREKHTVPWRYVILRLHEAVQEIVPHLNEHDHKRFSKGLARVFIDNYAAIPSESIRRLLALREAGIIHILALGEDYKMEINESRTVLKTEDNSYSFDVFIDARGQRPLKVKDIPFPGLREQLQKTGDEIPDVGEDYTLQQPEDIRGRVAFGALPWLMHDQPFVQGLTACAEIGEAMARAVVKPASRARRRLSFDGLCGR
MYDVVVVGAGPAGSRYARQAASRGLDVVVFEQGEIGKPLACSGHVSTDIWEFTEDARDELFQNEISGARFHTGGPGSQDHPFYKDEVISNVIDRVGLDKHLAGLARDAGADVREAHSVVGVTEDRDGVTVEVRGDDGVETHRAKMVAGCDGPKSRVRRELDLPEPDELLHGVLGFSDEVDHGDFVDVHLTVPRFFAWRIPRGEAGVEYGLAVPPGDDARGRFEEFVDGYGVETDHRCSGLIPIGPPKRVTGRRSFLIGDAAAQTKPFTGGGIRYGMTAADHAAREIDPEDPATLGEYERAWRDDLRQEIRLGHAVRAGYSAPEPIQKAGMKAFEGEIGVHMDRPTTLFSREQLAALFSRSLEHHHHHH
AIAESTKSNDIPILRNVSDSFSDHYGKYLQRCGIFVPKDGDSSGPDAYVVFHNGQTRYVVAFSFTFYHKTEFSKRDIEKEAEQFFQEVISVLNDGSPSSVQLCFQFVVVCTRYDRSVVFSSEEQNIVEDASYLVTEHSAGSTLNESRRSCLQLVVVSQRNLERFLGRENFDILRKIGKASREEFRKDFSVWCKTVFESMSDEYVSPLEAKPFNVTLRVARNIRPRTNEENRMQMEGFQTAMQVEEGNTRGEQRVAASSSLSSSFDWNTFLREYCGLSEEDVAYCLPKVEDIDMDELPAVTKEILRDLGIDKPALRLKIRSSIRSYLANER
FTANIKGLTQASRNANDGISIAQTTEGALNEINNNLQRVRELAVQSANSTNSQSDLDSIQAEITQRLNEIDRVSGQTQFNGVKVLAQDNTLTIQVGANDGETIDIDLKQINSQTLGLDTLNVQQKYKVSDTAATVTGYADTTIALDNSTFKASATGLGGTDQKIDGDLKFDDTTGKYYAKVTVTGGTGKDGYYEVSVDKTNGEVTLAGGATSPLTGGLPATATEDVKNVQVANADLTEAKAALTAAGVTGTASVVKMSYTDNNGKTIDGGLAVKVGDDYYSATQNKDGSISINTTKYTADDGTSKTALNKLGGADGKTEVVSIGGKTYAASKAEGHNFKAQPDLAEAAATTTENPLQKIDAALAQVDTLRSDLAAVQNRFNSAITNLGNTVNNLTSAR
LYVGSLHFNITEDMLRGIFEPFGKIDNIVLMKDSDTGRSKGYGFITFSDSECARRALEQLNGFELAGRPMRVGHVTERLDGG

Soluble on expression in E. coli, not soluble:
MAHHHHHHMTVVQEAIRVTSATPQPCGAADDVLAMKTLSPHDKVRRYMEEQECRHVPPTDATPEVASSEGGHDDALPGQHEDGDGEINHKIVPFTGEPGPDARERVPDRQKEKKKQKKQQAPRKRKHRSECAGREADDPLLLFRRSQKALRTEARHVNMKEVLSRSLSGVFDGLGEASNPFSPAAGSQSSSAWSPLVANSITSQFLSNVQQRKKQTFERLLQKEIANSQLSTSRLTPDDGEPDDRIPELVIGDETAVMEPPSMGHDALLMDAGTTSSQADTLLMGNTTSRGFVELDEEAEQAQSEALMRKHELWRLRQKHLRERLRAEESIPQLKRGDHQASLRGQPQTTVPMNFVTQSTSSLSTARGTTADVDGPTETLVLAHCSIIQQSQSLALGLSADHIEMIRRANNFDNTSSQRLVVFETKSRMKREGLAHLQQ
MGSDKIHHHHHHMLSVFVVNLRSNSAPFSFSRLLMHTTIVNERSLRTCNFPITLQDIRTLKELYRLKAETRDLRKPIVRNIMKQRVVGKGCLESLKNALYSLETIYIDDYTGQRLLRIDGMKQIEVDLTYEIRELQKDIYYLEYGEDRFIEYLAKFIPGFTDYVTEGVEMLRGKSFNAFITDRDGTTNNYCGRYRSSIQPIYNSVFLSRFAKNCCRYPMIVTSAPLKDFGILNVSINPEHIFVYAGSKGREFIDIDGQFHSFPIEPGKQELIRLLNERMQLLLLDPSFEKFNFIGSALQMKFGQTTIARQDITRSVNEAESAAFLEKIKGIVRDIDPEGKNFRIEDTGLDIEIILTIDVDPKTGMIRDFDKGDGLEFICRKMNIDHTGEPVLVCGDTSSDIPMLKKAMEMYDDVWAIFVTRDEKLMQRVREICPKSYMVPYPDILLTILGLLSL
MTSGANSSGSYLPSEIRSSKIDDNYLKELNEDLKLRKQELLEMLKPLEDKNNLLFQKLMSNLEEKQRSLQIMRQIMAGKGCEESSVMELLKEAEEMKQNLERKNKMLRKEMEMLWNKTFEAEELSDQQKAPQTKNKADLQDGKEKQQRKMEWVKYQEQNNILQNDFHGKVIELRIEALKNYQKANDLKLSLYLQQNFEPMQAFLNLPGSQGIRIV
MSEMQMDCALDLMRRLPPQQIEKNLIDLIDLAPDLCEDLLSSVDQPLKIAKDKEHGKDYLLCDYNRDGDSYRSPWSNSYYPPLEDGQMPSERLRKLEIEANYAFDQYREMYYEGGVSSVYLWDLDHGFAAVILIKKAGDGSKMIRGCWDSIHVVEVQEKTTGRTAHYKLTSTAMLWLQTNKQGSGTMNLGGSLTRQQEQDANVSESSPHIANIGKMVEEMENKIRNTLNEIYFGKTKDIVNGLRSTQSLADQRQQAAMKQDLAAAILRRNVKPESN
STAKNSPKEFTASESEVCIKTFKEQMRLELELPKLPGNRPTSPKISPRSSPRNSPCFFRKLLVNKSIRQRRRFTVAHTCFDVENGPSPGRSPLDPQAGSSSGLVLHAAFPGHSQRRESFLYRSDSDYDLSPKAMSRNSSLPSEQHGDDLIVTPFAQVLASLRSVRNNFTLLTNLHGAPNKRSPAASQAPVSRVSLQVCDHRRLTKCRESKRC
MSLDKPVIKISTENVDLIYRVGDNGRLYQSYLGKRLNHATDIAHLPQGSEAYLTHGMEDYFEPAIHIVHNDGNPSTLLKYVSHTRNQVSPGVDEVVITMQDDKYPVTVKLHYVAYQKENLIKTFTEISHREKKPVQLHKYASSMLHLNRANYFLTEFSGDWASEAHVKEQPLEFGKKTIDTKLGARANMFCSPFFQLALDGKSEENQGEVLVGTLGWTGNFSFVFEVDNKNELRVISGINPYASEYSLKPNEIFRTPDFYFTYSFKGKGQASRNFHDWARKYQVKDGNQTRMTLLNNWEATYFDFDEAKLVKLMDDAVELGVDMFLLDDGWFANKYPRSGDHQGLGDWDETADKLPHGIGYLTEAAKKKGIKFGIWIEPEMVNPKSELYEKHKDWVIHLPNRDEYYFRNQLVLDLSNPKVQDYVFGVVDNLMTKYPDIAFFKWDCNSPITNIYSVYLKDKQSHLYIDYVRGLYNVLERVKAKYPDLPMMLCSGGGGRSDYEALSYFTEFWPSDNTDPIERLFIQWGFSQVFPAKTMCAHVTTWNKNSSVKFRTDVAMMCKLGFDIKLADMSKDDETYCRTAVQNYNRLKPVVLEGDMYRLVSPYGSNHTSTMYVGKDKDKAVVFAFDIHPRYAEKILPVRLQGLDADKMYRVKEINLMPGANSEGHHHHHH
MGSDKIHHHHHHMKHGGFSAASEAENISKSKLSRRIIDLENKFNVSLIQRTTRHFKVTDLGQEFYEECCKVIAQVECAENVLLKQKSEPQGLVKVSCPPLMMHFQIRKILNQFLKTYPKVEISLELTSRRVDILHDDIDLAIRTNFEPNEDSNLIVRDVIKTDHCLVASPELLQGRTIKHYSELQDFPSISLGTQKQNYIWHLCNIRNGESVDVPYQPRIKSNDLAGVYYAVMDGLGIADLPFLTVESEIRKGTLVHILPDWKSNIGMLQLVYVSRKGQRLVVEKLIETLIDELRRLPESHEGYLPT
MRRSKMTYLIGVDCGGTHIVGQTWTTAPEHLVQSVTGGPGNVVLDYSAAVTNLTTVLDQLTAAIPASQLGLILIGIAGIETAGRADQVQQTITQRYHANTQVISDAKLALLNGLAGADGALVIAGTGSVVYGRQAGKFLRVGGWGYVLGDEGSAYDISKRALKQVLTQTDNGQTSQLTAPLLAQLKVTDIAAAVQKFYAQDRQTNAQLAQLIAKLAEQQNSEAITVLVTSAQALAQQVVTLYQRFAESWPQRVALSGSVLQHNRLVRDTLTTTVHQSIPTIAFNDITTNNAHAVIYWHRWTQEEINSLEHHHHHH
VKKIKDIGEVAGGSTPSTKIKEYWGGDIPWITPKDLANYEYIYISRGERNITEKAVKECSLRIFPKGTILLTSRAPIGYVAIAKNPLTTNQGFRNIIPKDGVVSEYLYYLFKTKTMSEYLKDISGGSTFPELKGSTLKEVEIPYPSPEEQQKIATVLSYFDD
